We go through one substance from paper PMC2637916.

The target of experiment [1] is Guanylyl cyclase activating protein 1 (GCAP1), recombinant, with the D6S mutation (UniProt P46065). Put plainly: pulsed-field gradient diffusion NMR.
For experiment [2] the target is unchanged. Put plainly: SEC. (In general: SEC sorts molecules by how far they enter the pores of the column.)

Consider “Guanylyl cyclase activating protein 1 (GCAP1), recombinant, with the D6S mutation (from UniProt P46065 1-205) (natural protein)”, for which the stoichiometry N in experiment [1] and in experiment [2] was 2 in each case.
